These results are taken from the supplement of paper PMC9112550, “Optimization of the antimicrobial peptide Bac7 by deep mutational scanning” (BMC Biology, 2022).
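Also: peptides expressed intracellularly from a pBAD plasmid library in pooled LB shake-flask culture, induced with 0.3% L-arabinose, DNA abundance read by NGS, three biological replicates, DESeq2 with apeglm shrinkage.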

The subject of the data set is Escherichia coli TOP10. The data set can be described thus: shrunken log2 fold change of peptide-encoding DNA abundance (4.5 h post-induction vs induction); higher = less antimicrobial activity (less host growth inhibition). The following applies: time post-induction: 4.5 h; library: site-saturation at positions 5, 18, 19, 20.
RRIRQRPPRLPRPRPRPRLYPRP: the “shrunken log2 fold change” value came out at 0.0786.

For RRIRARPPRLPRPRPRPGPEPRP, the “shrunken log2 fold change” value amounted to 1.61. With RRIRRRPPRLPRPRPRPMAWPRP, the “shrunken log2 fold change” value was found to be 0.0237. The figure for RRIRVRPPRLPRPRPRPETEPRP is 0.276; for RRIRNRPPRLPRPRPRPHKKPRP it is -0.00756; for RRIRMRPPRLPRPRPRPFHGPRP it is -0.128. The figure for RRIRIRPPRLPRPRPRPNCRPRP is -0.0156; for RRIRNRPPRLPRPRPRPRVMPRP it is 0.0236. As for RRIRARPPRLPRPRPRPPRGPRP, the figure is 0.833; as for RRIRERPPRLPRPRPRPEEDPRP, -0.058; as for RRIRSRPPRLPRPRPRPDIMPRP, -0.661. As for RRIRRRPPRLPRPRPRPGSEPRP, the “shrunken log2 fold change” value was determined as 0.00207. With RRIRPRPPRLPRPRPRPLLLPRP, the “shrunken log2 fold change” value was -0.208. RRIRDRPPRLPRPRPRPEPVPRP: the “shrunken log2 fold change” value is 0.576. With RRIRPRPPRLPRPRPRPMCSPRP, the “shrunken log2 fold change” value is -0.152. In the case of RRIRVRPPRLPRPRPRPAIIPRP, the “shrunken log2 fold change” value was -0.425. The figure for RRIRDRPPRLPRPRPRPHNLPRP is 0.156. The figure for RRIRHRPPRLPRPRPRPFFVPRP is -0.224; for RRIRNRPPRLPRPRPRPVTDPRP it is -0.013. As for RRIRKRPPRLPRPRPRPEHEPRP, the figure is 1.09.

For the sequence RRIRFRPPRLPRPRPRPSYYPRP, the “shrunken log2 fold change” value was -1.07. The figure for RRIRIRPPRLPRPRPRPLPAPRP is 0.041; for RRIRHRPPRLPRPRPRPHPVPRP it is -0.248; for RRIRKRPPRLPRPRPRPSCKPRP it is 0.034. The figure for RRIRARPPRLPRPRPRPIGSPRP is -0.0508. As for RRIRNRPPRLPRPRPRPRIWPRP, the figure is 0.0945; as for RRIRCRPPRLPRPRPRPMNGPRP, -0.0977; as for RRIRWRPPRLPRPRPRPEKSPRP, 0.486. For RRIRTRPPRLPRPRPRPVCSPRP, the “shrunken log2 fold change” value is -0.247. As for RRIRDRPPRLPRPRPRPLTKPRP, the figure is 0.0084; as for RRIRVRPPRLPRPRPRPKKCPRP, 0.0567. The figure for RRIRGRPPRLPRPRPRPKIRPRP is 0.118. Regarding RRIRARPPRLPRPRPRPNHMPRP, the “shrunken log2 fold change” value is -0.299. The figure for RRIRYRPPRLPRPRPRPHAQPRP is -0.0405; for RRIRNRPPRLPRPRPRPFHVPRP it is -0.128; for RRIRTRPPRLPRPRPRPSTLPRP it is -0.853. As for RRIRKRPPRLPRPRPRPYRAPRP, the figure is -0.117.

Consider RRIRKRPPRLPRPRPRPSRDPRP, for which the “shrunken log2 fold change” value is 0.0856. The figure for RRIRDRPPRLPRPRPRPAHWPRP is 0.404; for RRIRRRPPRLPRPRPRPPHTPRP it is 0.879.

For the sequence RRIRGRPPRLPRPRPRPDGMPRP, the “shrunken log2 fold change” value was 0.86. The figure for RRIRTRPPRLPRPRPRPPHKPRP is 0.242. For the sequence RRIRNRPPRLPRPRPRPHVDPRP, the “shrunken log2 fold change” value came out at 0.00884. As for RRIRARPPRLPRPRPRPPTHPRP, the figure is 0.398; as for RRIRVRPPRLPRPRPRPLIFPRP, -0.317; as for RRIRQRPPRLPRPRPRPFTGPRP, -0.0255.

Regarding RRIRSRPPRLPRPRPRPTCTPRP, the “shrunken log2 fold change” value worked out at 0.342. The figure for RRIRPRPPRLPRPRPRPAMGPRP is 0.332; for RRIRIRPPRLPRPRPRPGHTPRP it is -0.165; for RRIRGRPPRLPRPRPRPMRTPRP it is 2. For RRIRWRPPRLPRPRPRPFFTPRP, the “shrunken log2 fold change” value was -0.0367. As for RRIRCRPPRLPRPRPRPLPVPRP, the figure is -0.105; as for RRIRWRPPRLPRPRPRPAVQPRP, 0.792. As to RRIRMRPPRLPRPRPRPVDWPRP, the “shrunken log2 fold change” value came to 1.21. The figure for RRIRYRPPRLPRPRPRPLMWPRP is -0.0343. Turning to RRIRVRPPRLPRPRPRPWKYPRP, the “shrunken log2 fold change” value was -0.0321. The figure for RRIRPRPPRLPRPRPRPNPVPRP is -0.0737; for RRIRRRPPRLPRPRPRPKSNPRP it is 0.0649; for RRIRNRPPRLPRPRPRPQRYPRP it is -0.602. The figure for RRIRIRPPRLPRPRPRPPYVPRP is -0.121; for RRIRARPPRLPRPRPRPTHEPRP it is 0.622; for RRIRRRPPRLPRPRPRPNPAPRP it is 0.643.

On to RRIRTRPPRLPRPRPRPGCTPRP, for which the “shrunken log2 fold change” value was -0.0907. As for RRIRCRPPRLPRPRPRPSRDPRP, the figure is 0.189; as for RRIRHRPPRLPRPRPRPERVPRP, 0.228. As for RRIRFRPPRLPRPRPRPQTIPRP, the figure is -0.485.

For the sequence RRIRERPPRLPRPRPRPEGPPRP, the “shrunken log2 fold change” value came out at 0.23.

In the case of RRIRLRPPRLPRPRPRPDKVPRP, the “shrunken log2 fold change” value is -0.0274. As for RRIRYRPPRLPRPRPRPHRDPRP, the “shrunken log2 fold change” value was -0.288. Consider RRIRLRPPRLPRPRPRPMTLPRP, for which the “shrunken log2 fold change” value is -0.156. The figure for RRIRARPPRLPRPRPRPPIHPRP is -0.11; for RRIRDRPPRLPRPRPRPGPMPRP it is -0.00245; for RRIRRRPPRLPRPRPRPAFMPRP it is 0.169. As for RRIRMRPPRLPRPRPRPDRNPRP, the figure is 1.4; as for RRIRIRPPRLPRPRPRPFITPRP, -0.626; as for RRIRYRPPRLPRPRPRPNYCPRP, -1.16. With RRIRFRPPRLPRPRPRPNSYPRP, the “shrunken log2 fold change” value was -0.372. RRIRYRPPRLPRPRPRPHFKPRP: the “shrunken log2 fold change” value was -0.346. As for RRIRVRPPRLPRPRPRPVTAPRP, the figure is -0.0594; as for RRIRLRPPRLPRPRPRPDNEPRP, -0.162; as for RRIRTRPPRLPRPRPRPMMLPRP, 0.00466. As to RRIRIRPPRLPRPRPRPAKIPRP, the “shrunken log2 fold change” value was -0.176. RRIRWRPPRLPRPRPRPPRRPRP: the “shrunken log2 fold change” value stood at 0.642. Consider RRIRQRPPRLPRPRPRPQSPPRP, for which the “shrunken log2 fold change” value is -0.0301. The figure for RRIRGRPPRLPRPRPRPCGSPRP is 0.107; for RRIRNRPPRLPRPRPRPHYDPRP it is -0.775; for RRIRLRPPRLPRPRPRPPGSPRP it is 0.226. As for RRIRIRPPRLPRPRPRPMHYPRP, the figure is -0.434; as for RRIRSRPPRLPRPRPRPLGWPRP, 0.76; as for RRIRVRPPRLPRPRPRPFTRPRP, 0.114.

RRIRQRPPRLPRPRPRPNIQPRP: the “shrunken log2 fold change” value was -0.228. RRIRWRPPRLPRPRPRPNAWPRP: the “shrunken log2 fold change” value was 0.826. As for RRIRLRPPRLPRPRPRPHEIPRP, the figure is -0.298. The figure for RRIRMRPPRLPRPRPRPYKFPRP is 0.0435; for RRIRHRPPRLPRPRPRPFMWPRP it is -0.137. On to RRIRTRPPRLPRPRPRPPMHPRP, for which the “shrunken log2 fold change” value is 0.141. As for RRIRTRPPRLPRPRPRPVLPPRP, the figure is 0.0511; as for RRIRERPPRLPRPRPRPSRSPRP, 0.116. Consider RRIRFRPPRLPRPRPRPVHPPRP, for which the “shrunken log2 fold change” value amounted to 0.037. As for RRIRFRPPRLPRPRPRPPETPRP, the figure is 0.261; as for RRIRYRPPRLPRPRPRPPDGPRP, 0.176; as for RRIRERPPRLPRPRPRPLIKPRP, -0.12.

In the case of RRIRARPPRLPRPRPRPYMPPRP, the “shrunken log2 fold change” value was -0.829. The figure for RRIRSRPPRLPRPRPRPQWEPRP is 0.022. As for RRIRKRPPRLPRPRPRPKVYPRP, the figure is -0.124.

As for RRIRTRPPRLPRPRPRPSYAPRP, the “shrunken log2 fold change” value was -0.274.

Consider RRIRVRPPRLPRPRPRPAVHPRP, for which the “shrunken log2 fold change” value is -0.021. Turning to RRIRMRPPRLPRPRPRPGDRPRP, the “shrunken log2 fold change” value was 0.786. The figure for RRIRLRPPRLPRPRPRPHHKPRP is -0.644. RRIRGRPPRLPRPRPRPEKYPRP: the “shrunken log2 fold change” value was determined as 0.172. The figure for RRIRDRPPRLPRPRPRPDLRPRP is -0.0435; for RRIRDRPPRLPRPRPRPRETPRP it is 0.567. Turning to RRIRTRPPRLPRPRPRPETIPRP, the “shrunken log2 fold change” value is -0.0605. The figure for RRIRLRPPRLPRPRPRPGPMPRP is 0.255; for RRIRIRPPRLPRPRPRPAGHPRP it is -0.159. With RRIRGRPPRLPRPRPRPIPKPRP, the “shrunken log2 fold change” value is -0.117. The figure for RRIRHRPPRLPRPRPRPEIQPRP is -0.102. As for RRIRCRPPRLPRPRPRPYPKPRP, the “shrunken log2 fold change” value came to 0.0488. The figure for RRIRSRPPRLPRPRPRPDEFPRP is -0.149. As for RRIRYRPPRLPRPRPRPLCIPRP, the figure is -1.22. Take RRIRVRPPRLPRPRPRPGKKPRP: the “shrunken log2 fold change” value is 0.0628. The figure for RRIRHRPPRLPRPRPRPWAGPRP is -0.15. The figure for RRIRSRPPRLPRPRPRPRYSPRP is -0.232; for RRIRVRPPRLPRPRPRPGEHPRP it is -0.035.

In the case of RRIRMRPPRLPRPRPRPNCHPRP, the “shrunken log2 fold change” value was determined as 0.0305.
